Residue numbers refer to the chain shown, from its start. Values belong to the binder of their own block, whether it stands above or below them.
Target: T1, CD123 (Homo sapiens (Human), UniProt P26951 19-305, limits assumed)
T1 construct: The CD123 construct used in the ELISA is not described; also called CD123-Signal
T1 sequence: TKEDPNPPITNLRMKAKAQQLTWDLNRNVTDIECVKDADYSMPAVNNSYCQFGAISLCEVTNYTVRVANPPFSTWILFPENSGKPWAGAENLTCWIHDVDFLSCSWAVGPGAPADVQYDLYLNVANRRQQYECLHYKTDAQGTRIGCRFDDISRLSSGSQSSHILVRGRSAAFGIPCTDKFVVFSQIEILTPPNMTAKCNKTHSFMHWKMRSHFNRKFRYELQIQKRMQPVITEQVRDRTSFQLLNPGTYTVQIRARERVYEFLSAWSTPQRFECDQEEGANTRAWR
Assay: ELISA
Set-up: unit not given here

ELISA_avg: 3.2
B1: D domain of SEQ ID NO: 411 (designed binder)
chain: MGSWVEFVDRLWAIDERLDALGGSEAELAAFEKEIAAFESELQAYKGKGNPEVEFLRTWAAWIREDLQAYRHN

ELISA_avg: 3.3
B2: D domain of SEQ ID NO: 421 (designed binder)
chain: MGSWTEFYNRLDAIDQRLWALGGSEAELAAFEKEIAAFESELQAYKGKGNPEVEMLREYAADIRTDLQAYRHN

ELISA_avg: 4
B3: D domain of SEQ ID NO: 422 (designed binder)
chain: B2 chain with T5W, Y8I, N9W, D12E, D15E, M55V, E58S, Y59R

ELISA_avg: 3.2
B4: D domain of SEQ ID NO: 478 (designed binder)
chain: MGSWMFFKEDLADIKWALEALGGSEAELAFFEEEIALFEQHLQQYKGKGNPEVEALRKEAAAIRDELQAYRHN

ELISA_avg: 3.2
B5: D domain of SEQ ID NO: 468 (designed binder)
chain: MGSWHFFKDDLAWIKNELEALGGSEAELAMFEDDIAMFETMLQSYKGKGNPEVEALRKEAAAIRDELQAYRHN

ELISA_avg: 3.5
B6: D domain of SEQ ID NO: 469 (designed binder)
chain: B5 chain with F6W, D9T, W13D, N16E, M37E, T40E, M41F, S44M

ELISA_avg: 4.9
B7: D domain of SEQ ID NO: 475 (designed binder)
chain: B5 chain with H5G, F6H, D9Q, N16D, E17T, M30F, T40M, M41E, S44D

ELISA_avg: 6.3
B8: D domain of SEQ ID NO: 472 (designed binder)
chain: MGSWQWFKDDLAYIKETLEALGGSEAELALFEDMIADFEFELQWYKGKGNPEVEALRKEAAAIRDELQAYRHN

ELISA_avg: 10.4
B9: D domain of SEQ ID NO: 477 (designed binder)
chain: B8 chain with Q5Y, Y13E, E16G, T17L, L30E, M34E, D37V, F40Q, W44E

ELISA_avg: 3.3
B10: D domain of SEQ ID NO: 470 (designed binder)
chain: MGSWWLFKDDLAEIKYWLEALGGSEAELAFFEDDIAEFERGLQIYKGKGNPEVEALRKEAAAIRDELQAYRHN

ELISA_avg: 3.8
B11: D domain of SEQ ID NO: 471 (designed binder)
chain: B10 chain with W5Y, L6E, Y16E, D33L, E37D, R40W, G41L, I44L

ELISA_avg: 4
B12: D domain of SEQ ID NO: 493 (designed binder)
chain: B10 chain with W5H, D9W, D10T, W17E, F30W, E37T, R40E, G41E, I44W

ELISA_avg: 3.9
B13: D domain of SEQ ID NO: 481 (designed binder)
chain: B10 chain with W5T, L6F, D9N, Y16D, F30D, D33W, R40Y, G41S, I44E

ELISA_avg: 4.6
B14: D domain of SEQ ID NO: 482 (designed binder)
chain: B10 chain with W5T, L6Y, E13D, Y16Q, D33I, D34E, R40E, G41E, I44E

ELISA_avg: 6
B15: D domain of SEQ ID NO: 473 (designed binder)
chain: B8 chain with Q5I, W6L, Y13W, L30F, M34N, F40E, E41Q, W44G

ELISA_avg: 8.8
B16: D domain of SEQ ID NO: 480 (designed binder)
chain: B4 chain with M5V, E9D, W16D, A17E, E33I, E34A, Q40W, H41E, Q44E

ELISA_avg: 3.9
B17: D domain of SEQ ID NO: 483 (designed binder)
chain: B4 chain with M5T, F6V, E9Y, A17W, F30D, L37E, Q40E, H41E, Q44E

ELISA_avg: 7
B18: D domain of SEQ ID NO: 479 (designed binder)
chain: B4 chain with M5T, D13G, A17E, F30W, E33D, Q40E, H41E, Q44E

ELISA_avg: 3.3
B19: D domain of SEQ ID NO: 490 (designed binder)
chain: MGSWNSFKDELAEIKAELEALGGSEAELAFFEEDIAWFEEHLQQYKGKGNPEVEALRKEAAAIRDELQAYRHN

ELISA_avg: 3.4
B20: D domain of SEQ ID NO: 491 (designed binder)
chain: B19 chain with N5D, S6L, D9W, A16L, E17G, F30E, E33Y, H41D, Q44D

ELISA_avg: 7.6
B21: D domain of SEQ ID NO: 431 (designed binder)
chain: MGSWSEFEHRLEAIESRLFALGGSEAELAAFEKEIAAFESELQAYKGKGNPEVEDLRSEAAWIREQLQAYRHN

ELISA_avg: 4.9
B22: D domain of SEQ ID NO: 433 (designed binder)
chain: B21 chain with S5F, E8W, H9G, F19K, D55E, S58E, E59H, E65A, Q66Y

ELISA_avg: 3.4
B23: D domain of SEQ ID NO: 432 (designed binder)
chain: MGSWFEFWERLDAIEWRLWALGGSEAELAAFEKEIAAFESELQAYKGKGNPEVEELRSTAADIRRYLQAYRHN

ELISA_avg: 3
B24: D domain of SEQ ID NO: 465 (designed binder)
chain: B23 chain with W8Y, E15N, W19F, E55A, S58G, T59E, D62A, R65E, Y66D

ELISA_avg: 4.2
B25: D domain of SEQ ID NO: 419 (designed binder)
chain: MGSWMEFWERLEAIDMRLWALGGSEAELAAFEKEIAAFESELQAYKGKGNPEVEYLRDDAAVIRDDLQAYRHN

ELISA_avg: 5.1
B26: D domain of SEQ ID NO: 420 (designed binder)
chain: B2 chain with T5L, Y8M, N9W, Q16E, M55L, Y59M, D62A, T65D

ELISA_avg: 5
B27: D domain of SEQ ID NO: 417 (designed binder)
chain: MGSWDEFEERLFAIDERLWALGGSEAELAAFEKEIAAFESELQAYKGKGNPEVEALRYLAADIREELQAYRHN

ELISA_avg: 4.2
B28: D domain of SEQ ID NO: 424 (designed binder)
chain: B27 chain with D5S, E9D, F12W, E16Q, W19F, A55W, Y58A, L59Y, E65W

ELISA_avg: 6.8
B29: D domain of SEQ ID NO: 418 (designed binder)
chain: B27 chain with D5E, E8W, F12D, E16T, A55V, Y58N, L59D, E66P

ELISA_avg: 4
B30: D domain of SEQ ID NO: 425 (designed binder)
chain: B27 chain with D5T, E8W, F12N, W19F, A55W, Y58L, L59Y, D62E, E65S

ELISA_avg: 3.8
B31: D domain of SEQ ID NO: 429 (designed binder)
chain: B25 chain with M5V, W8E, D15E, M16E, W19F, Y55W, V62N, D65H, D66W

ELISA_avg: 5.6
B32: D domain of SEQ ID NO: 427 (designed binder)
chain: MGSWWEFENRLWAIEERLEALGGSEAELAAFEKEIAAFESELQAYKGKGNPEVEMLRNYAAEIRWELQAYRHN

ELISA_avg: 17
B33: D domain of SEQ ID NO: 423 (designed binder)
chain: B32 chain with W5S, E8Y, N9D, E19F, M55Y, N58Y, W65E

ELISA_avg: 4.1
B34: D domain of SEQ ID NO: 428 (designed binder)
chain: B27 chain with D5V, F12W, W19G, A55W, Y58D, L59W, E65W, E66W

ELISA_avg: 7.6
B35: D domain of SEQ ID NO: 494 (designed binder)
chain: MGSWVTFKDELADIKDFLEALGGSEAELAFFEVDIAEFEAELQFYKGKGNPEVEALRKEAAAIRDELQAYRHN

ELISA_avg: 4.4
B36: D domain of SEQ ID NO: 496 (designed binder)
chain: B35 chain with V5E, D9Y, D13E, F17Y, F30W, V33D, A40F, F44Y

ELISA_avg: 4.6
B37: D domain of SEQ ID NO: 495 (designed binder)
chain: B35 chain with T6Y, F30E, V33E, E37T, A40Y, E41D, F44W

ELISA_avg: 5
B38: D domain of SEQ ID NO: 497 (designed binder)
chain: B35 chain with V5N, D9Y, D13E, D16H, F30M, V33D, E37M, A40W, F44E

ELISA_avg: 5.1
B39: D domain of SEQ ID NO: 466 (designed binder)
chain: MGSWNEFEDRLDAIWWRLFALGGSEAELAAFEKEIAAFESELQAYKGKGNPEVEALRVEAAFIRTMLQAYRHN

ELISA_avg: 3.3
B40: D domain of SEQ ID NO: 484 (designed binder)
chain: MGSWYWFKQDLAHIKSMLEALGGSEAELAWFEEDIADFESELQEYKGKGNPEVEALRKEAAAIRDELQAYRHN

ELISA_avg: 9.4
B41: D domain of SEQ ID NO: 489 (designed binder)
chain: B19 chain with N5Y, S6W, D9E, E13F, A16W, F30L, W37Y, H41M, Q44E

ELISA_avg: 4.8
B42: D domain of SEQ ID NO: 485 (designed binder)
chain: B40 chain with Y5T, W6F, Q9W, H13D, S16A, M17N, I35L, D37G, S40A

ELISA_avg: 5.5
B43: D domain of SEQ ID NO: 488 (designed binder)
chain: B19 chain with N5Q, S6T, E13H, A16W, F30W, E33W, W37N, H41E, Q44E

ELISA_avg: 3.8
B44: D domain of SEQ ID NO: 492 (designed binder)
chain: B40 chain with Y5I, W6F, H13E, S16L, M17N, E33D, D37W, E41H, E44D

ELISA_avg: 4.1
B45: D domain of SEQ ID NO: 426 (designed binder)
chain: B32 chain with N9E, E15D, E16Y, E19H, N58S, Y59W, W65A, E66L

ELISA_avg: 3.7
B46: D domain of SEQ ID NO: 467 (designed binder)
chain: MGSWFYFKDDLADINYMLEALGGSEAELAMFEDDIAGFELTLLKYKGKGNPEVEALRKEAAAIRDELQAYRHN

ELISA_avg: 13.7
B47: D domain of SEQ ID NO: 434 (designed binder)
chain: MGSWQEFTMRLDAIYNRLETLGGSEAELAAFEKEIAAFESELQAYKGKGNPEVEWLRQSAANIRSELQAYRHN

ELISA_avg: 4.5
B48: D domain of SEQ ID NO: 476 (designed binder)
chain: MGSWGYFKDDLAWIKGELEALGGSEAELAEFEWFIAVFEEDLQVYKGKGNPEVEALRKEAAAIRDELQAYRHN

ELISA_avg: 3.8
B49: D domain of SEQ ID NO: 486 (designed binder)
chain: MGSWSFFKEELANIQVYLEALGGSEAELAWFEEDIADFEEDLQHYKGKGNPEVEALRKEAAAIRDELQAYRHN

ELISA_avg: 3.4
B50: D domain of SEQ ID NO: 487 (designed binder)
chain: B19 chain with N5E, S6F, D9Y, E13D, A16D, F30W, W37T, H41W, Q44G

ELISA_avg: 3.9
B51: D domain of SEQ ID NO: 474 (designed binder)
chain: MGSWIVFKDDLADIKRWLEALGGSEAELAMFEDEIADFEWQLQDYKGKGNPEVEALRKEAAAIRDELQAYRHN

From US20250026849A1 (ARCELLX, published 2025)
